{"source": "paper doi:10.1101/2024.05.03.592356", "about": "(bioRxiv, 2024)", "proteins": {"B1": {"name": "RdmB, N-terminal His6-tagged (enzyme, Streptomyces purpurascens)", "chain": "MSSSSPGEPLEPTDQDLDVLLKNLGNLVTPMALRVAATLRLVDHLLAGADTLAGLADRTDTHPQALSRLVRHLTVVGVLEGGEKQGRPLRPTRLGMLLADGHPAQQRAWLDLNGAVSHADLAFTGLLDVVRTGRPAYAGRYGRPFWEDLSADVALADSFDALMSCDEDLAYEAPADAYDWSAVRHVLDVGGGNGGMLAAIALRAPHLRGTLVELAGPAERARRRFADAGLADRVTVAEGDFFKPLPVTADVVLLSFVLLNWSDEDALTILRGCVRALEPGGRLLVLDRADVEGDGADRFFSTLLDLRMLTFMGGRVRTRDEVVDLAGSAGLALASERTSGSTTLPFDFSILEFTAVSEEAAPAAQASEALPAQE"}}, "molecular_target": "the molecule itself", "experiment": "crystal structure"}
{"protein": "B1", "values": [{"measurement": "binding result", "value": "binds"}]}
